# Assay results: patent US20210230248A1, “Multivalent pharmacophores for high avidity and overexpressed-target specific binding and uses thereof” (priority 2020, published 2021)
# “Also recorded” adds a separate entry of the source. Where no end group is shown, it is not given here.
# How the values were obtained:
# [1] = target: T1, PD-L1 overexpressing SU-DHL-1 cells (Homo sapiens, UniProt Q9NZQ7); experiment: Competitive binding assay on PD-L1 overexpressing SU-DHL-1 cells; details: antibody at ~33.3 nM, assuming linear relationship
# T1 construct: endogenous in cells; host or cells: SU-DHL-1 cells
# T1 sequence (Q9NZQ7 19-290): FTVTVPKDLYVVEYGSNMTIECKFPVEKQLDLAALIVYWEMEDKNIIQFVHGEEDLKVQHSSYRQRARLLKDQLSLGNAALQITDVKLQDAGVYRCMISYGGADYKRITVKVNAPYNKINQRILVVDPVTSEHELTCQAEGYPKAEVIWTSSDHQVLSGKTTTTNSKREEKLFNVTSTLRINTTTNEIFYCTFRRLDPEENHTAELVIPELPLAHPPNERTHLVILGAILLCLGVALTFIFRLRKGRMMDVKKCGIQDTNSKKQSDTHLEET
# Experimental: PC3, a low PD-L1 expressing cell is used as a control.
# PE-conjugated mouse anti-human PD-L1 antibody (Clone MIN1, eBioscience) at the final concentration of 0.5 μg/100 μL (˜33.3 nM) was mixed with 4-arm PEG-2K PD-1ecto or 6-arm PEG-3.4K PD-1ecto titrated from 50 nM to 1 nM in Stain Buffer. SU-DHL-1 cells (0.5×10^6 cells) were resuspended in each titration of reagent in a final volume of 100 μL per well. After incubation for 3 h on ice with occasional mixing, the cells were washed 3 times. The amount of anti-PD-L1 antibody bound to the cells was quantified by the fluorescence intensity of PE using flow cytometry.
# CD47 = CD47 (Homo sapiens, UniProt Q08722); details: Ho et al. 2015; read-out: Kd CD47/SIRPα; cited from earlier work
# Chain of CD47 (Q08722 19-323): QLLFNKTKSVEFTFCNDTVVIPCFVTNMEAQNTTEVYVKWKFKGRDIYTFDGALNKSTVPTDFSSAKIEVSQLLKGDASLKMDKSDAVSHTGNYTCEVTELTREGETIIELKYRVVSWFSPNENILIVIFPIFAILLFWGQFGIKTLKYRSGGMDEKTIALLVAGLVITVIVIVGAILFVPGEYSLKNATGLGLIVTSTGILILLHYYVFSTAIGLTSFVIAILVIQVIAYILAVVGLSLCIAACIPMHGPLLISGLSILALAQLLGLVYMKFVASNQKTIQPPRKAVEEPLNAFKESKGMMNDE
# [2] = target: T2, uPAR overexpressing Hela cells (Homo sapiens, UniProt Q03405); experiment: Competitive binding assay on uPAR overexpressing Hela cells; details: ratio of IC50 values
# T2 construct: endogenous in cells; host or cells: Hela cells
# T2 sequence (Q03405 23-335): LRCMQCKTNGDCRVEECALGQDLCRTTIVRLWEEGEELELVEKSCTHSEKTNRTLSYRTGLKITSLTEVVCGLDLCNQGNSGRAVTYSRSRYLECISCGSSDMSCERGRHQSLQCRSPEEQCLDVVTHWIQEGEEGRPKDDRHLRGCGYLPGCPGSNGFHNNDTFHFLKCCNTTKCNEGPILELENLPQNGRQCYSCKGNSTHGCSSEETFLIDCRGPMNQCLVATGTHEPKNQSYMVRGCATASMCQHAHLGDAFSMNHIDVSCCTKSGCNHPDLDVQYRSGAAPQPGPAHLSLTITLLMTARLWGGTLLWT
# Text: This assay is to measure the binding avidity of multivalent PEG-GFD pharmacophores to uPAR overexpressing Hela cells in comparison to uPA. Hela cells express uPAR but not uPA (Rabbani et al., Neoplasia, 2010, 12(10); 778-88), and therefore competition from endogenous uPA can be excluded.
# Mouse anti-uPAR (Clone VIM5) is an uPAR blocking antibody (Sillaber et al., J Biol Chem, 1997, 272(12):7824-32). The potency of multivalent PEG-GFD pharmacophores and native uPA to compete against the antibody in binding to the overexpressed uPAR on the surface of Hela cells is measured and compared in this assay.
# Hela cells were detached from culture flasks by trypsin/EDTA, resuspended in complete culture medium in a 50 mL conical tube, and incubated for 1 h at 37° C. in 5% CO2 incubator to allow receptor recovery. PE-conjugated anti-uPAR antibody (Clone VIM5; Invitrogen) at the final concentration of 0.5 μg/100 μL (33.33 nM) was mixed with titrated concentrations of 4-arm PEG-GFD and 6-arm PEG-GFD, and recombinant human uPA (Biolegend) in Stain Buffer. The mixture was added into Hela cells (500,000 cells in 100 μL; final density). […] The fluorescent intensity of PE on Hela cells was quantified by flow cytometry and plotted against the titration of 4-arm PEG-GFD, 6-arm PEG-GFD and uPA. The binding avidity of multivalent PEG-GFD pharmacophores relative to native uPA can be calculated.
# [3] = target: T3, HT-1080 cells in which the overexpressed uPAR is occupied by endogenous uPA (Homo sapiens, UniProt Q03405); experiment: Displacement of endogenous uPA from uPAR on HT-1080 cells; type: binding; details: various concentrations; 0.5-4 h on ice
# T3 construct: endogenous in cells; host or cells: HT-1080 cells
# T3 sequence (Q03405 23-305 limits assumed): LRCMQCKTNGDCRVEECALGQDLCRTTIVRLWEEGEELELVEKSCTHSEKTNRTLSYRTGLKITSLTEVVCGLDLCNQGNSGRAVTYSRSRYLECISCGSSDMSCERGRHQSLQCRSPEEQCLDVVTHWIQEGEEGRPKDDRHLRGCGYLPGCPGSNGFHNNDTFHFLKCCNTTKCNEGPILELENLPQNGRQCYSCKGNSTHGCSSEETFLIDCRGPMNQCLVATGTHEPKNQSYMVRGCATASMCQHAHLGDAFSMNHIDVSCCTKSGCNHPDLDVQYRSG
# Experimental: Human fibrosarcoma cell HT-1080 overexpresses both uPA and uPAR and the uPAR is occupied by the endogenous uPA. […] As a control, the competitive potency of uPAR blocking antibody (Clone VIM5) was also tested.
# HT-1080 cells were plated in 96-well plate at 30,000 cells/well in 100 μL DMEM medium supplemented with 10% FBS. After overnight incubation, the culture medium was removed and 4-arm PEG-GFD, 6-arm PEG-GFD and mouse anti-uPAR antibody (Clone VIM5, Invitrogen) with various concentrations in Stain Buffer were added into each well. The cells were incubated on ice for 0.5, 1, 2, 3 and 4 h. Then, the cells were washed twice with cold PBS and fixed in 4% paraformaldehyde for 30 min. The plate was blocked with 3% MSD Blocking Buffer for 1 h and the cells were stained with mouse anti-human uPA catalytic domain antibody (Clone 204212; R&D Systems) to quantify the amount of endogenous uPA still associated with the cells. After 2 h incubation with the antibody, HRP-conjugated anti-mouse antibody was added for another hour of incubation. TMB was then added and followed by addition of stop solution. The plate was read at 450 nm absorbance to quantify the endogenous uPA.
# [4] = test system: H1299, SW480, HT-1080 and PC3 cells; experiment: Cell adhesion assay on vitronectin coated plate; type: cell-based, human; details: four uPAR overexpressing cell lines; 3 h; various concentrations
# Experimental: For adhesion of cancer cells to vitronectin, 96-well plate was coated overnight with vitronectin (Thermo Fisher Scientific) at 5 μg/mL in PBS at 4° C., 50 μL/well. The wells without coating were used as negative controls. The plate was then blocked with 3% MSD Blocking Buffer for 2 h at room temperature. Four uPAR overexpressing human cancer lines were used for the assay: non-small cell lung cancer line H1299, colorectal cancer line SW480, fibrosarcoma line HT-1080 and prostate cancer line PC3. The cells were detached from culture flasks by trypsin/EDTA, resuspended in complete culture medium in a 50 mL conical tube, and incubated for 1 h at 37° C. in 5% CO2 incubator to allow receptor recovery. Cells were then washed with serum-free medium and resuspended in DMEM medium with 0.5% BSA. 50,000 cells in 100 μL were plated into each well with various concentrations of 4-arm and 6-arm PEG-GFD pharmacophores, and uPAR blocking antibody, VIM5. The plates were incubated at 37° C. in 5% CO2 incubator for 3 h, and washed 4 times with PBS with 0.5% BSA. The number of adherent cells in each well was quantified by CellTiter-Glo (Promega).
# H1299 and HT-1080 cells [5] = experiment: Chemotaxis assay (fibronectin coated transwell); type: cell-based, human; details: 10% FBS chemoattractant, 16 h
# Experimental: Chemotaxis assay was performed using BD BioCoat 24-well transwell with 8 μm pore size filter which is coated with fibronectin (Corning). For the study, H1299 and HT-1080 cells were detached from culture flasks with trypsin/EDTA, and then the trypsin was deactivated by adding the complete medium. The cells were washed with serum-free medium twice and resuspended at the final density of 50,000 cells in 500 μL DMEM medium supplemented with 0.5% BSA. The cells were treated with multivalent pharmacophores and uPAR blocking antibody for 1 h at 37° C. in 5% CO2 incubator. 650 μL of DMEM with 10% FBS was used as chemoattractant and added into the lower chamber. Serum-free DMEM medium was used as a negative control, and no drug treatment well was considered as 100% migration. After placing the upper chamber into the lower chamber, 500 μL cell suspensions were added to the upper chamber. 4-arm PEG-GFD, 6-arm PEG-GFD and uPAR blocking antibody, VIM5, with various concentrations were added in both upper and lower chambers. The transwell was incubated at 37° C. in 5% CO2 incubator for 16 h. […] The number of cells migrated past the filter was quantify by reading the solution in plate reader after transferring into a white 96-well plates.
# H1299 and HT-1080 cells [6] = experiment: Matrigel invasion assay; type: cell-based, human; details: 10 nM, 24 h
# Experimental: The migration of cells through Matrigel indicates the ability of the cells to digest the extracellular matrix during the process of migration. The Matrigel invasion assay is similar to the chemotaxis assay above except that the 8 μm pore size filter is coated with Matrigel. BD BioCoat Matrigel Invasion Chamber (Corning) was used for the assay with H1299 and HT-1080 cells. 4-arm PEG-GFD, 6-arm PEG-GFD and the blocking antibody VIM5 were used at the concentration of 10 nM. After 24 h treatment, the Matrigel along with the cells remaining on the upper surface of filter in the upper chamber was scraped off with a cotton swab. The migrated cells were measured with CellTiter-Glo as described above.
# Human recombinant PD-L2 = target: T4, Human recombinant PD-L2 (Homo sapiens, UniProt Q9BQ51); experiment: Binding to PD-L2 coated MSD plate; details: test items at 5 nM; plate coated at 40 nM; FIG. 4B
# T4 construct: purchased Abcam
# T4 sequence (Q9BQ51 20-273): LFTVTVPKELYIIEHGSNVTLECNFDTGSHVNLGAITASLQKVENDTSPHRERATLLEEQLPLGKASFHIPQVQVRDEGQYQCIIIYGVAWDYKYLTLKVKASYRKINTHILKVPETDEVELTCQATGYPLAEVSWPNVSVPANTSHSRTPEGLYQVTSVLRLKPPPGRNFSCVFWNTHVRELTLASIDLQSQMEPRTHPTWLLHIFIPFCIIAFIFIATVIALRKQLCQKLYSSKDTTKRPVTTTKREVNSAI
# Experimental: Human recombinant PD-L1, PD-L2 and CD80 (Abcam) at the concentration of 40 nM were coated onto wells of 96-well MSD plate (small spot, 40 μL/well) overnight at 4° C., and then blocked with 3% MSD Blocking Buffer for 1 h. […] The plates were shaken for another 1 h at room temperature. After washing, SULFO-TAG anti-mouse IgG antibody was added into the plates. The plates were further incubated for 1 h and then washed and read after adding 1×MSD Read Buffer. SULFO-TAG anti-human IgG antibody was added into the plate of PD-L1 Fc chimera proteins. The wells without coating were used as background binding.
Substance,fold increase in binding activity relative to native uPA [2] [fold],inhibition of adhesion to vitronectin [4],migration of cells to the lower chamber (chemotaxis) (H1299 and HT-1080 cells [5]),Matrigel invasion (H1299 and HT-1080 cells [6]),further results
"4-arm PEG-2K PD-1ecto: PD-1 ectodomain (aa. 21-169) site-specifically C-terminally conjugated to 4-arm PEG-2K, tetravalent pharmacophore",,,,,fold more potent than the PD-L1 blocking antibody [1]: about 2.6 fold
"SIRPα: signal-regulatory protein alpha, binds CD47 through its N-terminal IgV-like domain",,,,,Kd (CD47): 300 to 500 nM
6-arm PEG-GFD: growth factor-like domain of uPA conjugated to 6-arm PEG-3.4K (VPSNCDCLNGGTCVSNKYFSNIHWCNCPKKFGGQHCEIDKSKT; not fully specified (C-terminus); ends and bridges not checked; also: conjugated to 6-arm PEG-3.4K (site not given here)),~85,inhibited the adhesion of all four cell lines to vitronectin dose-dependently; also recorded: more potent than 4-arm PEG-GFD,significantly reduced migration,significantly inhibited,displacement of bound uPA from uPAR [3]: generally more potent than 4-arm PEG-GFD
PD-1 Fc chimera: recombinant human PD-1 Fc chimera protein (R&D Systems) [reference compound],,,,,binding to PD-L2 coated plate (Human recombinant PD-L2): bound
4-arm PEG-GFD: growth factor-like domain of uPA (first 43 amino acids) conjugated to 4-arm PEG-2K (VPSNCDCLNGGTCVSNKYFSNIHWCNCPKKFGGQHCEIDKSKT; not fully specified (C-terminus); ends and bridges not checked; also: conjugated to 4-arm PEG-2K (site not given here)),~31,inhibited the adhesion of all four cell lines to vitronectin dose-dependently,significantly reduced migration,significantly inhibited,
